US20240115742A1, “FLUORINATED FIBERS FOR MULTIMODAL 1H AND 19F MRI, ULTRASOUND, FLUORESCENCE DETECTION AND CONFORMATIONAL AND TEMPERATURE DETECTION BY 19F MRS” (New York University, priority 2022, published 2024)
Several values for one entry are separate records, joined by “and”; a condition that tells them apart may be missing. Equal values may be shown once.

Assays:
[1] = TEM of hydrogel nanofibers; type: physicochemical; settings: gel after incubation at 4 °C
Method: Transmission Electron Microscopy. Transmission electron microscopy (TEM) images were taken with a FEI Talos L120C transmission electron microscope. The supramolecular assembly of Q2 and Q were monitored over the course of 60 and 144 hours, respectively (in correspondence with tube inversion and microrheology). TEM images were taken of the gel at times consistent with when microrheological measurements for Q2 for consistent fibril sizing. Samples were diluted to 50 μM and 3 μL was spotted on Formvar/carbon-coated copper grids followed by 5 μL wash with water, and 3 μL staining with 1% v/v uranyl acetate solution each with incubation times of 1 min. Following imaging, fibrils were sized in ImageJ software (Version 1.52q).
(§1) Transmission Electron Microscopy. Transmission electron microscopy (TEM) images were taken with a FEI Talos L120C transmission electron microscope. Samples were diluted to 50 μM and 3 μL was spotted on Formvar/carbon-coated copper grids followed by a L wash with water, and 3 μL staining with 1% v/v uranyl acetate solution each with incubation times of 1 min. Between steps, filter paper was used to gently wick the grids dry. Following imaging, minimum diameter nanofibers within the physically crosslinked hydrogel were sized in ImageJ software (Version 1.52q).

Parallel plate rheology = type: physicochemical; settings: 10 Hz, 5% strain
Method: Rheology. Mechanical integrity of the Q2 hydrogel was assessed using a stress-controlled rheometer (Discovery Hybrid Rheometer 2, TA Instruments) equipped with a parallel plate geometry. After complete gelation of a 2 mM sample at 4° C., the sample was loaded onto the 8 mm diameter lower and upper plates with a 0.2 mm geometry gap. Strain and frequency settings were informed from previous Q hydrogel studies where the storage modulus (G′) and loss modulus (G″) were measured over the frequency range 0.1-10 Hz with a 5% oscillation strain.
Rheology. Q hydrogel variants were assessed for relative mechanical integrity with a stress-controlled rheometer (Discovery Hybrid Rheometer 2, TA Instruments) equipped with a parallel plate geometry. In parallel with microrheology measurements, 100 μL of each variant was incubated at 4° C. Upon gelation as assessed by microrheology, hydrogels were loaded onto an 8 mm diameter lower and upper plate with a 0.2 mm geometry gap. Storage modulus (G′) and loss modulus (G″) were measured from 0.1-10 Hz with 5% oscillation strain.

[2] = Tube inversion concentration-temperature phase diagram; type: physicochemical; settings: for solubility limit: 50 mM Tris, 500 mM NaCl, pH 8.0; for UCST: at solubility limit, extent of gelation η 0.5
Method: Tube Inversion Test. Immediately after concentration to 2 mM, the protein was incubated at 4° C. over the course of two weeks after aliquoting 150 μL into a 2 mL Eppendorf tube. The samples were visually assessed for gelation by inverting the tubes at 12-hour time intervals thereafter, with gelled samples not flowing upon inversion.
Gelation. To study the relative gelation of Q2 as compared to the previously reported coiled-coil hydrogel, Q, protein was successfully expressed (FIG. 24), purified (FIG. 25), and concentrated to 2 mM (1% w/v) in Tris buffer (50 mM Tris, 500 mM NaCl) at pH 8.0. Purity of the protein was measured to be >99% by SDS-PAGE (FIG. 26) and concentration was measured by BCA assay. Immediately following concentration, the gelation process of Q2 was studied using the microrheology assay described previously following incubation at 4° C. Separately, 150 μL samples were aliquoted for tube inversion tests performed after 2 weeks of incubation for visual assessment of gelation over time at 4° C. (FIG. 19a-d) and at concentrations from 1 mM to 3.5 mM with temperatures 5° C. to 25° C. using 0.5 mM and 5° C. step sizes, respectively, to create a matrix-based phase diagram (FIG. 19e). Temperature and concentration ranges were selected based on preliminary tube-inversion testing at high and low ends of the ranges.
Thermoresponsiveness and material strength. UCST behavior of protein hydrogels was assessed by testing […] samples via tube inversion in 2 mL microtubes after incubation for two weeks at various temperatures and concentrations. Temperature conditions were modulated in the range of 5-40° C. The concentration range was modified depending on if precipitation was visually noticeable in the microtube at an earlier concentration, indicating a solubility limit to our phase diagram, as has been done previously. […] As done with Q2, the UCST of the hydrogels was determined using a bivariate linear relationship for the extent of gelation where tubes that passed gelation by tube inversion were assigned a value of 1 (shown in black in FIG. 52a and FIG. 64a-d) and tubes that failed gelation by tube inversion (shown in red in FIG. 52a and FIG. 64a-d) were assigned a value of 0. The heatmap in FIG. 52a and FIG. 64a-d was used to denote the range of extent of gelation where the equation was employed to solve for the UCST using the solubility limit and solving for an extent of gelation, η, value of 0.5. The UCSTs (FIG. 52b) for the hydrogels studied here were 13.0° C., 35.9° C., 33.6° C., 17.5° C., and 22.9° C. for Q3-7, respectively, as compared to 17.0° C. for Q and 22.0° C. for Q2 found previously. Bivariate regression allowed for solving the coefficients for the dependence of temperature and concentration on gelation.
Tube Inversion. Binary sol-gel behavior was assessed using tube inversion. Immediately after concentration to 2 mM, 150 μL of Q hydrogel variants were incubated in 2 mL microtubes at 4° C. for two weeks. Gelation was visually observed by inverting the microtube and inspecting the sample for flow from the top of tube.

[3] = Fluorescence recovery after photobleaching (FRAP); settings: one-phase association fit
Method: Protein fibrils are capable of blue autofluorescence as a result of protein self-assembly. Fluorescent recovery after photobleaching (FRAP) is measured by photobleaching using a 405 nm laser and measuring the spot intensity over time. This behavior was previously confirmed in the Q protein in a recent characterization. Using the correlation between autofluorescence and fibrilization, the relative autofluorescence of the coiled-coil protein hydrogels was measured. […] To assess the relative laser response, hydrogels were subjected to FRAP imaging using two 100% intensity bleaches at 405 nm excitation followed by imaging at 2 second frame intervals (FIG. 53c).
Confocal Imaging and Fluorescence Recovery After Photobleaching (FRAP). FRAP experiments were performed with a Stellaris 8 Falcon laser scanning confocal microscope on an inverted DMi8 CS stand equipped with 63X NA 1.4 lens. Images were taken with a laser at 405 nm excitation. A pre-bleach image was taken followed by two bleach images using 100% laser intensity for 1.5 s. Following, 41 images were taken post-bleach at 2 s intervals. To measure recovery, FIJI (version 2.3.0) was used to automate background and recovery imaging following photobleaching. Independent background intensities were fit to a one-phase decay equation in GraphPad Prism. Background loss, as a result of photobleaching, from fit values were added to spot intensity values before being fit to a one-phase association equation in GraphPad Prism.

TEM of protein fibers = type: physicochemical; settings: fibers
Method: Transmission Electron Microscopy. Transmission electron microscopy (TEM) images were taken with a FEI Talos L120C transmission electron microscope. Protein fiber samples were diluted to 50 μM and 3 μL was spotted on Formvar/carbon-coated copper grids followed by 5 μL wash with water, and 3 μL staining with 1% v/v uranyl acetate solution each with incubation times of 1 min at RT. Fibrils were sized in ImageJ software (Version 1.52q).
as §1, with “a 5 μL” for “a L”, “to” for “to gently”, “the grids.” for “the grids dry.”, “imaging, fibrils” for “imaging, minimum diameter nanofibers within the physically crosslinked hydrogel”

Substance: Q4: Q hydrogel variant from Rosetta Monte Carlo search, SEQ ID NO: 13 (MRGSHHHHHHGSIEGRVKEITFIKKTIEQIAEEMKEINKAIHDIRHALENISKK) [Protein Q4]
- hydrogel fibril diameter (TEM) [1]: 27.2±8.7 nm
- loss modulus G″ (Parallel plate rheology): 15.0 ± 3.2 Pa
- storage modulus G′ (Parallel plate rheology): 70±20 Pa and 69.9 ± 19.7 Pa
- solubility limit [2]: 4000 µM
- UCST [2]: 35.9 °C
- Halftime [3]: 5.7 s
- K [3]: 0.1 s⁻¹
- Tau [3]: 8.2 s

Substance: Q6: Q hydrogel variant from trimodal Monte Carlo search, SEQ ID NO: 15 (MRGSHHHHHHGSIEGRVKEITFIKKQIEQIAEEMKEINKAIHDIRHALENISKK) [Protein Q6]
- hydrogel fibril diameter (TEM) [1]: 39.9±16.9 nm
- loss modulus G″ (Parallel plate rheology): 13±6 Pa and 13.0 ± 5.7 Pa
- storage modulus G′ (Parallel plate rheology): 253±123 Pa and 252.9 ± 122.7 Pa
- solubility limit [2]: 3000 µM
- UCST [2]: 17.5 °C
- Halftime [3]: 5.1 s
- K [3]: 0.1 s⁻¹
- Tau [3]: 7.3 s

Substance: Q7: Q hydrogel variant from trimodal Monte Carlo search, SEQ ID NO: 16 (MRGSHHHHHHGSIEGRVKEMTFIKKTIEQQAEEMKEINKAIHDIRHALENISKK) [Protein Q7]
- hydrogel fibril diameter (TEM) [1]: 36.3±10.8 nm
- loss modulus G″ (Parallel plate rheology): 21±8 Pa and 20.6 ± 7.9 Pa
- storage modulus G′ (Parallel plate rheology): 298±62 Pa and 297.5 ± 61.7 Pa
- solubility limit [2]: 3000 µM
- UCST [2]: 22.9 °C
- Halftime [3]: 9.7 s
- K [3]: 0.1 s⁻¹
- Tau [3]: 13.9 s

Substance: Q9: Monte-Carlo output sequence with increased ΔEEbcf from the Q domain; probably SEQ ID NO: 18 (MRGSHHHHHHGSIEGRVKEIKFLKNTAPQQLRELQNTNMALQDVRELLQQQSTL) [Protein Q9]
- fiber diameter, largest population of sizes (TEM of protein fibers): 1280±330 nm
- average protein fiber diameter (TEM) (TEM of protein fibers; 50 mM NaH2PO4 pH 4.0): 760±170 nm
